Results as given in patent US20210283212A1 (RA PHARMACEUTICALS, published 2021).
Like-named read-outs stand apart in the source and are kept apart here. Positions of bridges follow the written chain, without caps; N, C: chain ends. Non-standard residues stand in square brackets, D forms with d. Primed or numbered codes have the meaning given here. No end group written: not given here. *: point of attachment. mXylyl(3) = bridging moiety between the two residues given in brackets; m‑xylyl = bridging moiety between the two residues given in brackets; Lys(ivDde) = CC(C)CC(NCCCC[C@H](N)C(=O)O)=C1C(=O)CC(C)(C)CC1=O; mXylyl″ = bridging moiety between the two marked residues; Ala(1H-tetrazol-5-yl) = N[C@@H](Cc1nnn[nH]1)C(=O)O; Trp(5-F) = N[C@@H](Cc1c[nH]c2ccc(F)cc12)C(=O)O; Trp(7-aza) = N[C@@H](Cc1c[nH]c2ncccc12)C(=O)O; mXylyl(4) = bridging moiety between residues; Trp(1-Me) = Cn1cc(C[C@H](N)C(=O)O)c2ccccc21; Palmitoyl = CCCCCCCCCCCCCCCC(=O)*; NMeD = CN[C@@H](CC(=O)O)C(=O)O; Chg = N[C@H](C(=O)O)C1CCCCC1; Phg = N[C@H](C(=O)O)c1ccccc1; Tle = CC(C)(C)[C@H](N)C(=O)O; NMeS = CN[C@@H](CO)C(=O)O; Nva = CCC[C@H](N)C(=O)O; Thp = NC1(C(=O)O)CCOCC1; Mpa = O=C(O)CCS

B1: R3119 (peptide)
peptide: Ac-YENY[dW]EYP[Phg][Nva]-NH2
SMILES: CCC[C@H](NC(=O)[C@@H](NC(=O)[C@@H]1CCCN1C(=O)[C@H](Cc1ccc(O)cc1)NC(=O)[C@H](CCC(=O)O)NC(=O)[C@@H](Cc1c[nH]c2ccccc12)NC(=O)[C@H](Cc1ccc(O)cc1)NC(=O)[C@H](CC(N)=O)NC(=O)[C@H](CCC(=O)O)NC(=O)[C@H](Cc1ccc(O)cc1)NC(C)=O)c1ccccc1)C(N)=O
B2: R3192 (peptide)
peptide: Ac-KVERFD[NMeD][Tle]Y[Trp(7-aza)]EYP[Chg]K-NH2
modifications: lactam 1-6
SMILES: CC(=O)N[C@H]1CCCCNC(=O)C[C@@H](C(=O)N(C)[C@@H](CC(=O)O)C(=O)N[C@H](C(=O)N[C@@H](Cc2ccc(O)cc2)C(=O)N[C@@H](Cc2c[nH]c3ncccc23)C(=O)N[C@@H](CCC(=O)O)C(=O)N[C@@H](Cc2ccc(O)cc2)C(=O)N2CCC[C@H]2C(=O)N[C@H](C(=O)N[C@@H](CCCCN)C(N)=O)C2CCCCC2)C(C)(C)C)NC(=O)[C@H](Cc2ccccc2)NC(=O)[C@H](CCCNC(=N)N)NC(=O)[C@H](CCC(=O)O)NC(=O)[C@H](C(C)C)NC1=O
B3: R3194 (peptide)
peptide: Ac-KVERFD[NMeD][Tle]Y[Trp(7-aza)]EYP[Chg]K(Palmitoyl)-NH2
modifications: lactam 1-6
SMILES: CCCCCCCCCCCCCCCC(=O)NCCCC[C@H](NC(=O)[C@@H](NC(=O)[C@@H]1CCCN1C(=O)[C@H](Cc1ccc(O)cc1)NC(=O)[C@H](CCC(=O)O)NC(=O)[C@H](Cc1c[nH]c2ncccc12)NC(=O)[C@H](Cc1ccc(O)cc1)NC(=O)[C@@H](NC(=O)[C@H](CC(=O)O)N(C)C(=O)[C@@H]1CC(=O)NCCCC[C@H](NC(C)=O)C(=O)N[C@@H](C(C)C)C(=O)N[C@@H](CCC(=O)O)C(=O)N[C@@H](CCCNC(=N)N)C(=O)N[C@@H](Cc2ccccc2)C(=O)N1)C(C)(C)C)C1CCCCC1)C(N)=O
B4: R3110 (peptide)
peptide: Ac-YEN[Tle]Y[Trp(1-Me)]EYP[Phg][Nva]-NH2
SMILES: CCC[C@H](NC(=O)[C@@H](NC(=O)[C@@H]1CCCN1C(=O)[C@H](Cc1ccc(O)cc1)NC(=O)[C@H](CCC(=O)O)NC(=O)[C@H](Cc1cn(C)c2ccccc12)NC(=O)[C@H](Cc1ccc(O)cc1)NC(=O)[C@@H](NC(=O)[C@H](CC(N)=O)NC(=O)[C@H](CCC(=O)O)NC(=O)[C@H](Cc1ccc(O)cc1)NC(C)=O)C(C)(C)C)c1ccccc1)C(N)=O

Experiments:
Assay in all cases: cell-based or functional assay
human C5 protein [1] = biological target: T1, human C5 protein (human, UniProt P01031 19-673; P01031 678-1676)
human C5 protein [2] = biological target: T1, human C5 protein; remark: listed apart in the source
human C5 protein [3] = biological target: T1, human C5 protein; remark: listed apart in the source
human C5 protein [4] = biological target: T1, human C5 protein; remark: listed apart in the source

Binder | Avg. IC50, hemolysis assay with C5 depleted sera (human C5 protein [1]) | Avg. IC50, human hemolysis assay (human C5 protein [2]) | Avg. IC50 (nM), human hemolysis assay (human C5 protein [3]) | Avg. IC50 (nM), human hemolysis assay (human C5 protein [4])
Ac-KVERFD[NMeD][Tle]YWEYP[Chg]K(Palmitoyl) (lactam 1-6) [R3195] | 62.5 nM |  |  | 
Ac-[Nva]C[Phg]T[dW]EY[NMeS]HC[Nva]-NH2 (linker 2-10 via mXylyl(3)) [R3132] |  | > 100000 nM | > 100000 nM | 
Ac-[Nva]C[Phg]T[Trp(1-Me)]EY[NMeS]AC[Nva]-NH2 (linker 2-10 via mXylyl(3)) [R3109] |  | > 100000 nM | > 100000 nM | 
B1 |  | > 100000 nM |  | > 100000 nM
B2 | 1.5 nM |  |  | 
Ac-KVERFD[NMeD][Tle]YWEYP[Chg][Lys(ivDde)] (lactam 1-6) [R3197] | 4 nM |  |  | 
[Mpa]VERFC[NMeD][Tle]Y[Trp(7-aza)]EYP[Chg]K(Palmitoyl) (bridge 1-6; also: cyclo(1,6) between Cys1 and Cys6, ring kind not given here) [R3198] | 142 nM |  |  | 
Ac-[Nva]C[Phg]TFEY[NMeS]AC[Nva]-NH2 (linker 2-10 via mXylyl(3)) [R3092] |  | > 50000 nM | > 50000 nM | 
Ac-CVERFC[Thp][Tle]Y[Trp(7-aza)]EYP[Chg][Nva] (linker 1-6 via mXylyl(3)) [R3186] | 18 nM |  |  | 
Ac-[Nva]C[Phg]TAEY[NMeS]HC[Nva]-NH2 (linker 2-10 via mXylyl(4)) [R3034] |  | > 50000 nM | > 50000 nM | 
Ac-KVERFD[NMeD][Tle]YWEYP[Chg]K (lactam 1-6) [R3196] | 3 nM |  |  | 
Ac-[Nva]C[Phg]TW[Ala(1H-tetrazol-5-yl)]Y[NMeS]HC[Nva]-NH2 (linker 2-10 via mXylyl(3)) [R3131] |  | > 100000 nM | > 100000 nM | 
Ac-CAERFCD[Tle]Y[Trp(7-aza)]EYP[Phg]K(Palmitoyl) (linker 1-6 via m‑xylyl) [R3189] | 81.5 nM |  |  | 
Ac-[Nva]C[Phg]TWEY[NMeS]AC[Nva]-NH2 (linker 2-10 via mXylyl(3)) [R3091] |  | 483 nM | 483 nM | 
Ac-[Nva]CYNN[Tle]ECEYP[Phg][Tle]-NH2 (cysteine pairing not given here) [R3128] |  | > 100000 nM |  | > 100000 nM
B3 | 15.5 nM |  |  | 
Ac-[Nva]CYEN[Tle]YCEYP[Phg][Nva]-NH2 (linker 2-8 via mXylyl″) [R3017] |  | > 100000 nM |  | > 100000 nM
Ac-[Nva]CYNN[Tle]ECEYP[Phg][Tle]-NH2 (linker 2-8 via mXylyl(3)) [R3129] |  | > 100000 nM |  | > 100000 nM
[Mpa][dA]ERFC[NMeD][Tle]Y[Trp(7-aza)]EYP[Chg]K(Palmitoyl) (bridge 1-6; also: cyclo(1,6) between Cys1 and Cys6, ring kind not given here) [R3199] | 112 nM |  |  | 
Ac-[Nva]C[Phg]T[Trp(5-F)]EY[NMeS]AC[Nva]-NH2 (linker 2-10 via mXylyl(3)) [R3088] |  | > 100000 nM | > 100000 nM | 
B4 |  | 2940 nM |  | 2940 nM
